B1: Tpm1.1_(64–154) (domain or fragment)
chain: not shown
modifications: disulfide bond between the Cys residues of the N-terminal fusion sequences of the two chains (non-reducing conditions)
notes: tropomyosin Tpm1.1 (human skeletal isoform, TPM1), residues Leu64 to Ile154; Cloned in pET15b between NdeI and BamHI; also called Tpm1.1 peptide; wild-type Tpm1.1_(64–154); source: His-tag removed with thrombin; not shown: His-tag, N-terminal, cleaved
B2: Tpm3.12_(65–155) (domain or fragment)
chain: not shown
modifications: disulfide bond between the Cys residues of the N-terminal fusion sequences of the two chains (non-reducing conditions)
notes: tropomyosin Tpm3.12 (human skeletal isoform, TPM3), residues 65-155, numbered as in full-length Tpm3.12; Cloned in pET15b between NdeI and BamHI; One sentence of the methods prints 65–165; also called Tpm3.12 peptide; wild-type Tpm3.12_(65–155); source: His-tag removed with thrombin; not shown: His-tag, N-terminal, cleaved
B3: Tpm3.12_(65–155)R91C (domain or fragment)
chain: not shown
modifications: oxidized Cys residues (disulfide between the N-terminal Cys of the two chains)
notes: tropomyosin Tpm3.12 (human, TPM3), residues 65-155 with the congenital myopathy mutation R91C; source: His-tag removed with thrombin; not shown: His-tag, N-terminal, cleaved
B4: Tpm1.1_(64–154)I92T (domain or fragment)
chain: not shown
modifications: oxidized Cys residues (disulfide between the N-terminal Cys of the two chains)
notes: tropomyosin Tpm1.1 (human, TPM1), residues 64-154 with the cardiomyopathy mutation I92T; source: His-tag removed with thrombin; not shown: His-tag, N-terminal, cleaved
B5: Tpm1.1_(64–154)V95A (domain or fragment)
chain: not shown
modifications: oxidized Cys residues (disulfide between the N-terminal Cys of the two chains)
notes: tropomyosin Tpm1.1 (human, TPM1), residues 64-154 with the cardiomyopathy mutation V95A; source: His-tag removed with thrombin; not shown: His-tag, N-terminal, cleaved
B6: Tpm3.12_(65–155)R91P (domain or fragment)
chain: not shown
modifications: oxidized Cys residues (disulfide between the N-terminal Cys of the two chains)
notes: tropomyosin Tpm3.12 (human, TPM3), residues 65-155 with the congenital myopathy mutation R91P; source: His-tag removed with thrombin; not shown: His-tag, N-terminal, cleaved

Target: the molecule itself
Experiment: cross-linking; disulfide cross-link through the N-terminal Cys, seen on SDS-polyacrylamide gel; Laemmli solution without β-mercaptoethanol, with or without 3 min at 100 °C

Stoichiometry N, 2:
B1, B2

Target: the molecule itself
Experiment: mass spectrometry; molecular weights of the purified peptides compared with theoretical MWs calculated in Expasy; Liquid Chromatography and Mass Spectrometry Laboratory

Stoichiometry N, 2:
B3, B4, B5, B6
